Key:
[1] = system: cytosols from Jurkat T cells; test: apoptotic signaling cascade in cell-free system (Jurkat cell extracts), Western blot; assay type: biochemical; details: added to cytosols from Jurkat T cells
Procedure: The ability of the procaspase-8 cleavage fragment p41 (hereafter referred to as casp8p41) to initiate an apoptotic signaling cascade in a cell-free system was tested. The cell free system was used previously to reveal the signaling pathway used by HIV protease to initiate apoptosis.
Jurkat cells were purchased from ATCC (Rockville, Md.) and maintained in Dulbecco's Modified Eagle Medium (DMEM) or RPMI1640 (GIBCO) supplemented with 10% (v/v) FBS, 1% penicillin and streptomycin, and 2 mM L-glutamine. The cells were incubated at 37° C. in a humidified atmosphere containing 5% CO2 and 95% air. Jurkat cell extracts were prepared as described previously (Nie et al., Cell Death Differ., 9:1172-84 (2002)). Briefly, cells (0.5×10^6 cells/mL) were harvested by centrifugation at 16000×g for 5 minutes at 4° C. The cell pellet was washed twice with ice-cold PBS (pH 7.4), followed by a single wash with ice-cold caspase buffer (20 mM PIPES, 100 mM NaCl, 10 mM DTT, 1 mM EDTA, 0.1% CHAPS, 250 mM sucrose, pH 7.2). […] Polypeptide concentrations were determined using a BCA protein assay kit (Pierce Chemical Co., Rockford, Ill.), and the resultant suspension was incubated with either HIV protease or casp8p41 polypeptide. […]

primary human T cells = test: transfection of primary human T cells, viability by light scatter and apoptosis by TUNEL; assay type: cell-based; details: PBL from HIV-negative donors transfected with pcDNA3 HA casp8p41, compared with GSK3β control vector
Procedure: Primary human T cells were tested for their response to expression of casp8p41 polypeptide by transfecting cells with a vector encoding casp8p41 polypeptide, or with a control vector encoding glycogen synthase kinase 3β (GSK3β; Kim et al., J Biol Chem., 278:13995-14001 (2003)). PBL from HIV-negative donors were isolated and transfected with 2 μg/10×10^6 cells with pcDNA3 HA GSK3β (Ougolkov et al., Cancer Res., 65:2076-2081 (2005)) or pcDNA3 HA casp8p41 using nucleofectin (AMAXA, MD) and program U14. Transfected cells were analyzed for changes in viability by light scatter or for apoptosis by TUNEL staining.

[2] = system: NFκB-mediated transcription; test: NFκB activation in an over-expression system; assay type: cell-based
HeLa cells = test: transient expression in HeLa cells, TUNEL, active caspase-3 and Annexin-V staining; assay type: cell-based; details: cells transfected with pEGFPC1casp8p41
Procedure: The effect of transient expression of casp8p41 polypeptide in HeLa cells was investigated. HeLa cells were purchased from ATCC and maintained in Dulbecco's Modified Eagle Medium (DMEM; GIBCO) supplemented with 10% (v/v) FBS, 1% penicillin and streptomycin, and 2 mM L-glutamine. The cells were incubated at 37° C. in a humidified atmosphere containing 5% CO2 and 95% air. Exponentially growing cells were seeded at 2500-5000 cells/well in a 96-well plate. The cells were transfected with a DNA plasmid expressing GFP (pEGFPC1, BD Biosciences Clontech, Palo Alto, Calif.), or with a plasmid expressing casp8p41 polypeptide as a fusion to the C-terminus of GFP (pEGFPC1casp8p41) using Fugene 6 (2 μL per μg DNA), according to the manufacturer's protocol. […]
HeLa cells transfected with pEGFPC1 or pEGFPC1casp8p41 were analyzed by confocal microscopy following staining with DAPI to visualize cell nuclei and TUNEL staining to detect apoptosis. […]
Cells transfected with pEGFPC1 and pEGFPC1casp8p41 were also subjected to Annexin-V PE, active caspase-3, and TUNEL staining and analyzed for cell death by flow cytometry, gating specifically on GFP-positive cells. […] GFP and annexin-V PE double-positive cells were analyzed by flow cytometry at 30,000 events per sample. […]

procaspase-8 = biological target: T1, procaspase-8 (Homo sapiens, UniProt Q14790, A331P); test: in vitro cleavage of 35S methionine-labeled procaspase-8, autoradiography and immunoblotting; assay type: biochemical; details: 50 mM NaOAc (pH 4.9), 200 mM NaCl, 5 mM DTT, 10% glycerol
T1 construct: amino acids 355 and 356 were mutated in full-length caspase-8; made in house; host or cells: cell-free TNT Quick coupled transcription/translation system (Promega)
T1 sequence (Q14790 whole entry A331P): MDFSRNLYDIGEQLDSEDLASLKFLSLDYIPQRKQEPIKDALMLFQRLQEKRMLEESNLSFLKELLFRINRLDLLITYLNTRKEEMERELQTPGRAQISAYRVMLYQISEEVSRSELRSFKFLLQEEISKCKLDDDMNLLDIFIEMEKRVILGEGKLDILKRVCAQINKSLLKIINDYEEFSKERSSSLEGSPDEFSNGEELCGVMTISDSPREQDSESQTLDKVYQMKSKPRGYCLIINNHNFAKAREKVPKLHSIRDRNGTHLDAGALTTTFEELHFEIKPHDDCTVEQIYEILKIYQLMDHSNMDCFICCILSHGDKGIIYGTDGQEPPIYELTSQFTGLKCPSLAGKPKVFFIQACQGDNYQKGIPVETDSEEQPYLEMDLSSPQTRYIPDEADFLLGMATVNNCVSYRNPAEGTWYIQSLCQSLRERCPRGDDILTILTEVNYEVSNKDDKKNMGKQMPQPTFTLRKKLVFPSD
Procedure: The fusion polypeptide, Flag-procaspase-8-Myc, was prepared by TNTR Quick coupled transcription/translation systems (Promega, Madison, Wis.). Briefly, 1 μg of pcDNA3Flag-procaspase-8-Myc or pcDNA3Flag (as a control) was added to a 50 μL nuclease-free reaction mixture containing 40 μL of TNT Quick Master Mix and 1 μL of 1 mM […] methionine. The reaction was carried out at 30° C. for 90 minutes and stopped by adding 20 μg/mL of cycloheximide (CI-IX) and 200 μg/mL of RNase and incubating the mixture at 30° C. for 5 minutes. ^35S methionine-labeled Flag-procaspase-8-Myc fusion polypeptide was prepared by adding 40 μCi of ^35S methionine instead of 1 μL of 1 mM methionine. The reaction mixture was separated by SDS-PAGE on a 10-15% gel and visualized by autoradiography. […]
The ^35S methionine-labeled Flag-procaspase-8-Myc fusion polypeptide produced in vitro was incubated with HIV-1 protease purchased from Sachem Biosciences (King of Prussia, Pa.). […] After cleavage of ^35S methionine-labeled Flag-procaspase-8-Myc fusion polypeptide by HIV-1 protease, the products were analyzed by autoradiography (FIG. 1C, top) and immunoblotting using antibodies directed against the Flag (FIG. 1C, middle) and Myc (FIG. 1C, bottom) epitopes. […]

Molecule	apoptotic signaling: Bid cleavage, cytochrome c release, caspase-9 and PARP cleavage [1]	level of apoptosis (primary human T cells)	NFκB activation [2]	TUNEL positivity and active caspase-3 expression, flow cytometry gated on GFP-positive cells (HeLa cells)	cleavage of Flag-procaspase-8-Myc fusion polypeptide (procaspase-8)
casp8p41 polypeptide: procaspase-8 cleavage fragment p41 generated by HIV protease (SEQ ID NO:2) (protein, listed as Homo sapiens) MDFSRNLYDIGEQLDSEDLASLKFLSLDYIPQRKQEPIKDALMLFQRLQEKRMLEESNLSFLKELLFRINRLDLLITYLNTRKEEMERELQTPGRAQISAYRVMLYQISEEVSRSELRSFKFLLQEEISKCKLDDDMNLLDIFIEMEKRVILGEGKLDILKRVCAQINKSLLKIINDYEEFSKERSSSLEGSPDEFSNGEELCGVMTISDSPREQDSESQTLDKVYQMKSKPRGYCLIINNHNFAKAREKVPKLHSIRDRNGTHLDAGALTTTFEELHFEIKPHDDCTVEQIYEILKIYQLMDHSNMDCFICCILSHGDKGIIYGTDGQEPPIYELTSQFTGLKCPSLAGKPKVF	resulted in cleavage of Bid to p15 tBid, release of cytochrome c from the mitochondrial fraction into the cytosol, and cleavage of caspase-9 and PARP	induced a significantly greater level of apoptosis	two-fold more than full-length caspase-8 polypeptide	induces TUNEL positivity and active caspase-3 expression	–
caspase-8 polypeptide: full-length caspase-8 polypeptide, over-expressed (protein, UniProt Q14790 1-479, looked up, full-length, full-length caspase-8 polypeptide, over-expressed) MDFSRNLYDIGEQLDSEDLASLKFLSLDYIPQRKQEPIKDALMLFQRLQEKRMLEESNLSFLKELLFRINRLDLLITYLNTRKEEMERELQTPGRAQISAYRVMLYQISEEVSRSELRSFKFLLQEEISKCKLDDDMNLLDIFIEMEKRVILGEGKLDILKRVCAQINKSLLKIINDYEEFSKERSSSLEGSPDEFSNGEELCGVMTISDSPREQDSESQTLDKVYQMKSKPRGYCLIINNHNFAKAREKVPKLHSIRDRNGTHLDAGALTTTFEELHFEIKPHDDCTVEQIYEILKIYQLMDHSNMDCFICCILSHGDKGIIYGTDGQEAPIYELTSQFTGLKCPSLAGKPKVFFIQACQGDNYQKGIPVETDSEEQPYLEMDLSSPQTRYIPDEADFLLGMATVNNCVSYRNPAEGTWYIQSLCQSLRERCPRGDDILTILTEVNYEVSNKDDKKNMGKQMPQPTFTLRKKLVFPSD	–	–	increase NFκB activation	–	–
renin: another aspartyl protease (protein, UniProt P00797 67-406, looked up) Renin: LTLGNTTSSVILTNYMDTQYYGEIGIGTPPQTFKVVFDTGSSNVWVPSSKCSRLYTACVYHKLFDASDSSSYKHNGTELTLRYSTGTVSGFLSQDIITVGGITVTQMFGEVTEMPALPFMLAEFDGVVGMGFIEQAIGRVTPIFDNIISQGVLKEDVFSFYYNRDSENSQSLGGQIVLGGSDPQHYEGNFHYINLIKTGVWQIQMKGVSVGSSTLLCEDGCLALVDTGASYISGSTSSIEKLMEALGAKKRLFDYVVKCNEGPTLPDISFHLGGKEYTLTSADYVFQESYSSKKLCTLAIHAMDIPPPTGPTWALGATFIRKFYTEFDRRNNRIGFALAR	–	–	–	–	did not cause procaspase 8 cleavage
